Assay results published in the supplement of paper PMC10567573.

B1: TFE3 (parent)
chain: FPSDHLGDLGDPFHLGLEDILMEE
B2: EIF5 (parent)
chain: KQTIGNSCKACGYRGMLDTHHKLC

Variants of: B1
Test: protein stability index of a GFP-peptide fusion (GPS, HEK-293T) (PSI 1-6); higher = more stable
Details: c terminus: a fixed tail appended
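Further: lentivirally expressed fusions sorted by FACS into six bins by GFP to DsRed ratio, PSI derived from sequencing read proportions per bin multiplied by bin number.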

Variant | protein stability index
E24L | 1.97
E24D | 3.54
E24H | 2.75
E24M | 2.62
E24I | 1.97
G16P | 3.35
D19C | 2.91
D19K | 3.29
G10W | 2.76
P2K | 3.97
E18K | 2.85
E18N | 3.12
L6M | 3.71
L6V | 3.81
L6I | 3.37
L6P | 3.57
G7C | 2.89
G7A | 3.94
G7Y | 3.22
G7Q | 3.67
G7K | 3.07
D8E | 3.73
L9P | 3.42
F1W | 4.36
F1L | 4.55
E23N | 2.65

Variant | protein stability index
E23V | 3.85
M22N | 4.04
M22R | 3.33
M22W | 3.16
H5Q | 3.85
H5K | 2.83
L17I | 3.22
P12K | 4.02
P12C | 3.62
D11L | 2.89
D11N | 2.12
D11G | 3.52
L15A | 4.29
L15N | 3.77
L15E | 4.21
S3W | 2.2
S3H | 2.91
S3M | 2.59
L21I | 3.32
L21T | 3.93
L21Q | 3.94
I20A | 3.28
I20D | 4.26
H14G | 4.14
H14W | 2.27

Variants of: B2
Test: as above
Details: c terminus: a fixed tail appended

Variant | protein stability index
M16I | 3.07
M16H | 4.16
M16E | 4.14
M16C | 3.75
M16W | 2.62
I4R | 3.31
I4A | 3.68
I4F | 3.02
Y13I | 2.16
Y13D | 3.03
Y13K | 3.97
Y13E | 3.75
Y13R | 3.24
Y13F | 3.21
Y13L | 2.94
L17H | 3.63
L17W | 2.31
L17R | 3.44
L17F | 2.55
L17A | 3.66
L17P | 3.88
D18T | 2.96
D18F | 2.08
D18E | 3.35

Variant | protein stability index
D18R | 2.65
D18Y | 2.09
D18M | 2.56
D18I | 2.24
N6K | 3.11
N6M | 2.83
N6R | 2.84
R14H | 3.42
R14N | 3.04
R14A | 2.93
R14I | 3.33
C11F | 2.17
C11A | 2.2
C11M | 1.73
C11Y | 2.4
C24A | 1.99
C24D | 2.25
C24M | 2.81
T3Y | 3.35
T3H | 3.67
T3C | 2.92
T3V | 2.38
T3E | 2.99
T3F | 2.86

Variant | protein stability index
L23G | 3.93
L23R | 3.4
L23A | 3.89
L23H | 4.67
K22S | 2.79
K22W | 2.17
K22T | 2.99
K22Q | 2.76
K22A | 2.77
K22R | 2.34
G15L | 2.44
G15I | 2.26
G15W | 1.52
A10K | 3.29
A10I | 3.86
A10L | 3.3
A10R | 3.27
A10V | 3.33
K9P | 4.46
K9M | 2.85
K9D | 3.87
K9E | 3.5
G12F | 1.73
G12C | 2.56

Variant | protein stability index
G5H | 2.96
G5S | 2.95
G5M | 4.13
G5F | 2.64
G5V | 3.46
G5W | 2.34
Q2D | 2.84
Q2A | 3.48
Q2E | 3.74
Q2K | 3.18
Q2H | 3.6
Q2P | 3.5
Q2N | 3.02
K1Q | 3.14
K1C | 2.97
K1H | 2.95
K1L | 2.9
T19P | 2.81
T19W | 1.87
T19A | 3.29
T19E | 3.62
T19F | 2.17
T19M | 3.03
T19D | 4.48

Variant | protein stability index
T19G | 4.05
T19N | 3.81
H21S | 2.9
H21E | 3.21
H21Q | 2.51
H21P | 3.17
H21L | 2.77
H21M | 2.89
S7W | 2.64
S7V | 3.72
S7L | 4.11
S7K | 3.93
S7I | 4.31
S7P | 2.91
H20W | 2.48
H20L | 2.24
C8H | 1.91
C8E | 2.68
C8A | 2.06
C8D | 2.48
